Experimental data published in patent US9416162B2, “Peptides having reduced toxicity that stimulate cholesterol efflux” (The Regents of the University of California, priority 2013, dated 2016).
Non-standard residues stand in square brackets, D forms with d. No end group written: not given here. Cit = NC(=O)NCCC[C@H](N)C(=O)O

Legend:
cynomolgus monkeys = assay: IV infusion toxicity in cynomolgus monkeys (ALT, AST, CPK, bilirubin); type: in vivo, cynomolgus monkey
Description: Male (upper panel) and female lower panel) cynomolgus monkeys were administered ATI-5261 at a fixed dose of 100 mg/kg by IV infusion (60 min) every 96 hours for a total of 4 injections. Blood was collected 24 h post infusion and levels of plasma ALT, AST, creatine kinase (CPK), and total and indirect bilirubin were determined Values are expressed as a fold-increase vs. pre-dose levels.

C57Bl/6 mice = assay: Safety and TG elevating effects after IP injection in C57Bl/6 mice (plasma CPK, ALT, AST, lipids); type: in vivo
Description: The high-dose cytotoxic response of ATI-5261 observed in rat, rabbit and cynomolgus monkey is additionally recapitulated in mice (FIG. 4). Male chow-fed C57bl/6 mice were injected intraperitonelly (IP) with 30 or 300 mg/kg of lipid-fee ATI-5261. Blood was collected via the retro-orbital plexus 4 h after peptide injection and plasma subsequently obtained for measurement of CPK (Panel A) and ALT and AST activities (Panel B, ALT left bars; AST, right bars). Values are means±SD, n=4 mice per group.
This example illustrates that aromatic phenylalanine residues associated with the non-polar surface of ATI-5261 contributed to the majority of the peptide toxicity (FIG. 5). […] Blood was collected via retro-orbital plexus 4 h after injection for isolation of plasma. Levels of plasma CPK (Panel A), ALT (panel B) and AST (Panel C) were determined as described in FIG. 1. Values are means±SD, n=4 mice per group.
All values (mg/dl) are means±SD, n=4, determined at 4 and 6 h post treatment with peptide.

HDL in human plasma = assay: preβ HDL formation in human plasma, 2D NDGGE and western blot
Description: To test whether CS6253 exerts anti-atherogenic effects in a biological milieu, human plasma was exposed (5 min) to lipid-free peptide. Interactions of CS6253 with HDL and activity of plasma to stimulate cholesterol efflux was assessed, using J774 macrophages labeled with [^3H]cholesterol. Panel A—Cholesterol efflux activity of plasma treated with lipid-free peptides. Human plasma was incubated with 300 μg/ml peptides for 5 minutes (4° C.), diluted to 1% in serum-free RPMI-1640 culture medium and immediately added to [^3H]cholesterol-labeled J774 cells. […] Panel B—Induction of preβ HDL upon treatment of human plasma with CS6253. Plasma was exposed to a small amount of peptide relative to endogenous apoA-I (1:10 mole ratio, respectively) and formation of preβ HDL assessed by 2D non-denaturing gradient gel electrophoresis (NDGGE) and western blot analysis. […] This is consistent with no peptide being associated with the preβ HDL fraction, indicating the particles were authentic preβ particles composed on endogenous apoA-I.

ABCA1 = biological target: T1, ABCA1 (Mus musculus, UniProt P41233); assay: ABCA1 protein stabilization, western blot of J774 whole-cell lysates; type: cell-based; conditions: J774 cells after cAMP treatment, continued presence of peptide
T1 construct: treated (18 h) with a cAMP analog to induce ABCA1 protein expression; endogenous in cells; host or cells: J774 macrophages
T1 sequence (P41233 whole entry): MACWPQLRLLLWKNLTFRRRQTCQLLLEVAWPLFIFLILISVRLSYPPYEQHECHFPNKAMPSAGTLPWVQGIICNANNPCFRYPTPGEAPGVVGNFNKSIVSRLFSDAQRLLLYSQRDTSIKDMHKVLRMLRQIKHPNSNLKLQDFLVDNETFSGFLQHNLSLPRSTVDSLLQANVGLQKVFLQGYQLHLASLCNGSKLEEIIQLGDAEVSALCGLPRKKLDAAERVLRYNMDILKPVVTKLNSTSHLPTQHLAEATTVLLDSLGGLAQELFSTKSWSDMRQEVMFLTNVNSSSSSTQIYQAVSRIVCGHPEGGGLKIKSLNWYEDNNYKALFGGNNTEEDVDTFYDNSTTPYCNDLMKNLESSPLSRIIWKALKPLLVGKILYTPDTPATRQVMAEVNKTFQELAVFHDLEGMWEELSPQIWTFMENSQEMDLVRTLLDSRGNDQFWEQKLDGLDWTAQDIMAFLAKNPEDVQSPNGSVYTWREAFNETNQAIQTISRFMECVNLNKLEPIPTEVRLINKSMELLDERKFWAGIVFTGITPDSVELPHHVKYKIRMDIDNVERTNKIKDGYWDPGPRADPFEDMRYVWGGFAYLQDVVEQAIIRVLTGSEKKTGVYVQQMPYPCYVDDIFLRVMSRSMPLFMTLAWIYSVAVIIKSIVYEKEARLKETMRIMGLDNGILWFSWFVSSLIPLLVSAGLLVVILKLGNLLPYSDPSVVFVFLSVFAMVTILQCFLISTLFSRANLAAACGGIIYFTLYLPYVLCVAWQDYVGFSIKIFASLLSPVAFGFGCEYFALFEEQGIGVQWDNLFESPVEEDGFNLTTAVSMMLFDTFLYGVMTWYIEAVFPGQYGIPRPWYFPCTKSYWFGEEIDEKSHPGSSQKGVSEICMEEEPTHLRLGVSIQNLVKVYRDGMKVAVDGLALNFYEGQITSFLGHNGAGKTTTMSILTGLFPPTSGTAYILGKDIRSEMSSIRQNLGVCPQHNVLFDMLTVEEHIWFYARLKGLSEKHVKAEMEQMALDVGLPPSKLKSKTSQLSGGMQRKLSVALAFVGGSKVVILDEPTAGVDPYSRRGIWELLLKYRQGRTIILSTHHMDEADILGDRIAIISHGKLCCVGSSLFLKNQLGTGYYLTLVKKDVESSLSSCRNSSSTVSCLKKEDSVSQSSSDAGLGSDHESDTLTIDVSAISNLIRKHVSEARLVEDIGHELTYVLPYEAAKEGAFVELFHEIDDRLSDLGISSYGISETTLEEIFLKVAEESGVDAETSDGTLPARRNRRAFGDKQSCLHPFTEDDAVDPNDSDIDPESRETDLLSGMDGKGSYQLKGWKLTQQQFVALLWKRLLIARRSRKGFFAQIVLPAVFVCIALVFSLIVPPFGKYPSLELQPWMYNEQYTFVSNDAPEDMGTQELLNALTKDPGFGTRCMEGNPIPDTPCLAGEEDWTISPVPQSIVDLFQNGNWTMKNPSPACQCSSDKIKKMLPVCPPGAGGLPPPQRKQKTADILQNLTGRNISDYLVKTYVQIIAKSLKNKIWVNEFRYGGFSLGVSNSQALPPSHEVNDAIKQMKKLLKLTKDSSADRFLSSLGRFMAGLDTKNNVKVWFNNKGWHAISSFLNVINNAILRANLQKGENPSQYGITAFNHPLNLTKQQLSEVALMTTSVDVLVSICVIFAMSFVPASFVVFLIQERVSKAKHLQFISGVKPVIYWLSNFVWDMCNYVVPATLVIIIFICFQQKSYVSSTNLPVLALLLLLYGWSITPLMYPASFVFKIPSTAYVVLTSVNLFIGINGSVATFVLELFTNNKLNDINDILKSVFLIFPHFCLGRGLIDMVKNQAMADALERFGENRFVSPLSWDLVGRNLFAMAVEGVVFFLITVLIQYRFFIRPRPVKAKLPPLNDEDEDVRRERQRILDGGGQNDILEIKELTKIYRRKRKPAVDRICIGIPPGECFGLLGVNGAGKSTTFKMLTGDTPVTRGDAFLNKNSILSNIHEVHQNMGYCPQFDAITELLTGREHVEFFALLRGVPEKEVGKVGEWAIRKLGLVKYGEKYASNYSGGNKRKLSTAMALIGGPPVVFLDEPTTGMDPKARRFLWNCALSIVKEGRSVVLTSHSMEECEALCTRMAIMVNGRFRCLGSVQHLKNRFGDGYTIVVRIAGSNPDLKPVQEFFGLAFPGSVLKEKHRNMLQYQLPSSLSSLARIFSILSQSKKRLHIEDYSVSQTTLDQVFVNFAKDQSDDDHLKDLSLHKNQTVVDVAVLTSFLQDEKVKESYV
Description: In some embodiments, the stabilization of ABCA is measured by direct measurement of ABCA (e.g., ABCA protein, or nucleic acid) using a cell based assay. Cell based assays can be performed in any cells in which ABCA is expressed (e.g., J774 macrophages), including cells which have been transfected with ABCA (e.g. HeLa cells). Any cell type can be used. For example, J774 macrophages can be used to assess relative ABCA1 protein levels in the presence and absence of polypeptides of the invention. The cells are first contacted with a compound that will induce ABCA (e.g., cAMP or a cAMP analogue such as, 8-bromo-cAMP) to upregulate ABCA (e.g., ABCA1) expression, then exposed to […] polypeptides of the invention in the absence of the cAMP stimulus to evaluate whether ABCA1 protein was stabilized or degraded. Relative levels of ABCA1 protein can be assessed using any means known in the art including, e.g., immunoblot analysis of cell membranes (Oram et al., J. Biol. Chem., 278:52379-52385 (2003)) or hybridization of nucleic acid probes to ABCA mRNA.
J774 macrophages were used for experiments. Panel A—Cells were labeled (48 h) with 3H cholesterol and treated with (right bars) and without (left bars) a cAMP analog to modulate ABCA1 expression. […]

ATI-5261: HDL mimetic peptide, parent peptide; triglyceride elevating and muscle toxic peptide used as positive control (EVRSKLEEWFAAFREFAEEFLARLKS) [reference compound]
cytotoxic response (ALT, AST, CPK, bilirubin) (cynomolgus monkeys; 100 mg/kg IV infusion (60 min) every 96 hours, 4 injections, blood 24 h post infusion): induced a cytotoxic response | plasma creatine kinase (CPK), fold-increase vs. pre-dose levels (cynomolgus monkeys; 100 mg/kg IV infusion, after the first infusion, male and female monkeys): marked increase | plasma TG, total and unesterified (free) cholesterol (FC) (C57Bl/6 mice; C57Bl/6 mice, 300 mg/kg, 4 and 6 h post treatment): marked increase | cytotoxic/toxic response (plasma CPK, ALT, AST) (C57Bl/6 mice; male chow-fed C57Bl/6 mice, IP 300 mg/kg, plasma 4 h after injection): High levels of cytotoxic markers

EVCitSKLEEWLAALCitELAEELLARLKS (SEQ ID NO:2) (EV[Cit]SKLEEWLAAL[Cit]ELAEELLARLKS) [CS6253, citrulline form of LeuATI-5261, R3,14→Citrulline, 26-mer]
association of peptide with HDL species in plasma (HDL in human plasma; antibody against CS6253): associated with α-HDL | preβ HDL formation (HDL in human plasma; peptide:endogenous apoA-I 1:10 mole ratio, apoA-I antibody): increase in preβ HDL | ABCA1 protein levels (stabilization) (ABCA1): maintained at high levels
